# Assay results: the DeepSol protein solubility set
# Assay: soluble on expression in E. coli; label from the status in PepcDB or PDB records
row,Sequence,soluble on expression in E. coli
1,MSLVNIEFYESVAASEAKFINDTLIPQFEAEYPGIHVTFVNVGSEDVSKDILAMEASGHVGPIVAGQDNLEIGQLIYSSHGNVLMNLTAMSPALMPSSLIPAASNLVQYEQKVFGGIYFFPFRGNVPLVFYNKTALSDAGISSPPANYTQLLQDAMTIHSKTGKDPIMIQGASTNGGHTGSSTATEMYQMMVQFGGNPLYLNDTGDIHAVEMLYNLSAYFSPDFKTGYWGSYRGLAVGNYSILDYQWPYVYNILTASPYNMTNSTLGVYPGPAGPVNANHVLGGDVLFIPKGATNIPSLEAFIRFLLGAQAQRETLLNLSWVAINQNAYRNLPKSESVIFTALEQAIATGVFLRNPTPWITEWQVIFCNDVFNPLFVTHSKTYSDIPSLLSYAHSQMYSYIAANYGQANATLYNNPNAYAPISEGHHHHHH,not soluble
2,MPTDDKARPRKTLTIKKTAPAAPSADDEAPRRKRIGARARLVAQMERAKEQQHAPRRKAPRQDAAHQDDAPRRRPRAPREAEIFPVYAPCPQGIEEALAAEMQALGFEDARAGRAGCAFSTDWAGVQRANLYSRLATRILVQVAQADIGHEDDILDLARSVPWERWFGPDETLRVDTSAIKSPVKSLQYCNLRAKDGICDRLREVEGARPDIDTVRPDARVHLFLSGTTATLYLDTSGESLFKRGWRLDKGEAPLRENLAAGMLALAGWDPAEPLLDPFCGSGTILIEAAWIALGVPPGISRPFGFERLRNHDARRWQDLKADARTRIQTQLETPLFGYDLDPRAIQYAQANAERAWLTADTIRFEVGDARHLAAPADHGWIVTNPPYGERMETEDDSEMWRDWAACLKRQFAGWQVHVISSDMTLPQRLRLKPLRRVPLHNGALDCRLFGFELVPASYRKPA,not soluble
3,MSSGDMTSEYKDKQGGGAGQPLTKSENNDGKKTLTNGMSRVHRVLTEDEIASGRSTRWTELEIHGRVKNLSPSLWQLTHLSALFLNNNGLTRLPPEIAQLTNLTMLDISNNKLRSLPTELGDMISLCHLYLNNNQLRVLPYELGKLFRIQTLGLQGNPLSPEISKIYHETNGAQKILQFLLDHLTINTHPPPERNWVMIRHADPERPIATFTVLCYNVLCDKYATVNQYSYCPSWALNWEYRKGLIIKEIRTYEADVITLQEVETEQFRTLFQPELKQLGYAGIFEAKSRAKTMGEEERKYVDGCAIFWKVDKFDMDKQYLFEFSSVAMKKASTSENMLNRVMPRDNIGLCAVLKIKESVYANKFLGRMQIPMNDNVVGNPLVVATAHIHWDPEFCDVKLVQSMMLTHEVSRVLEEVSKKYQITQQQVPVLICGDFNSLPDSGVFEYLSKGQITRRHMDLKSFRDDSCLEKFTNSTDKNVISHPLRLDSACDINSIPFTNYTLDFKGMIDYIFATPQSLARLGILGPFDPQWVQSNKILGFPHPHVASDHIPIMAQYAIIPTTHQRQQPLQQAGPAAGVIGGGFPSTPSGAQPFLRC,not soluble
4,MNRLAHHQGIYKFFFTLGLTLQLSKPVIKHLIHIVDALTTKGFSGTLTDIHHWSFHPNHRTTLSHFFTKSPWNEERLLGKLQEWILRRIERKNQPLFVSIDDTICQKTKPSSRATHAIEGCDWHYSHKDHQSVWGHSLVWLMVHTFTQAFPFAFRLYDKKAGRSKIDLAIEMLSSIKVKLTQPVYVLMDSWYPSKTLIEACLKQGFHVIAMLKTNRILYPKGIAIQAKQFARYIEPKDTRLVTVGQERYRVYRYEGAIHGLDDAVVLLAWKADQPMTPEHLHCVLSTDRGLGDEDILRYYAQRWTIECFFRQAKDQLKLDGYRVRHVRAVKRYWAVVLLASVYSIAESRQTLSAGLELLRSRKDHSVVEFIYDAAKQGIPIDVIKKQLRIA,not soluble
5,MASMTGGQQMGRGSDYFEPQQQQQQQQQQPQGASTPKVFVGYSIYKGKAALTVEPRSPEFSPLDSGAFKLSREGMVMLQFAPAAGVRQYDWSRKQVFSLSVTEIGSIISLGTKDSCEFFHDPNKGRSDEGRVRKVLKVEPLPDGSGHFFNLSVQNKLINLDENIYIPVTKAEFAVLVSAFNFVMPYLLGWHTAVNSFKPEDASRSNNANPRSGAELEWNLEHHHHHH,soluble
6,MKFILRLGLALLTGFVSVSTASAQAYGTADTNAPELRVPKSVQPAFDYWMRDTWATLGPDGYYYITGTTSTPDRHFPGQRHCWDWNDGLYLWRSKDLKIWEAMGRIWSMEKDGTWQKDPKVYKEGEKYAKKSINNDPMDNRFHAVWAPEMHYIKSAKNWFIVACMNQSAGGRGSFILRSTTGKPEGPYENIEGNEDKAIFPNIDGSLFEDTDGTVYFVGHNHYIARMKPDMSGLAEEIKTLKESKYSPEPYVEGAFIFKYDGKYHLVQAIWAHRTVKGDTYVEKEGLTNKKTRYSYDCIIATADNVYGPYGKRYNAITGGGHNNLFQDKDGNWWATMFFNPRGAQAAEYKVTCRPGLIPMLYENGKFKPNHNYQAK,not soluble
7,MFLTRSEYDRGVSTFSPEGRLFQVEYSLEAIKLGSTAIGIATKEGVVLGVEKRATSPLLESDSIEKIVEIDRHIGCAMSGLTADARSMIEHARTAAVTHNLYYDEDINVESLTQSVCDLALRFGEGASGEERLMSRPFGVALLIAGHDADDGYQLFHAEPSGTFYRYNAKAIGSGSEGAQAELLNEWHSSLTLKEAELLVLKILKQVMEEKLDENNAQLSCITKQDGFKIYDNEKTAELIKELKEKEAAESPEEADVEMS,soluble
8,MIAMDIREIGLRLVGEAIKAADPYRAVLNAVKVSDDKIIVQGKEFEIKGKVYVIALGKAACEMARAIEDILDVEDGVAVTKYGYGKELKRIKVIEAGHPIPDEKSILGAKEALSILNRARENDIVFILISGGGSALFELPEEGISLEDLKLTTDLLLKSGAKIHEINTVRKHISKVKGGKLAKMIKGTGIVLIISDVVGDNLEAIASGPTVKDPTTFEDAKRILELYDIWEKVPESVRLHIERGLRGEVEETLKEDLPNVHNFLIASNSISCEAIAREAQRLGFKAYIMTTTLEGEAKDAGLFIGSIVQEIAERGRPFEPPVVLVFGGETTVTIEGKGGKGGPNQEIALSATRKISDLEALIVAFDTDGTDGPTDAAGGIVDGTTYKKLREKGIDVEKVLKEHNSYEALKKVGGLLFTGPTGTNVNSIVIAIVTSKRGRT,soluble
9,MAHHHHHHMNTFFLSRFRGGTFFLQKYEKIWNRAKGYHTYNYIFQNNKNIINHKKKNRNLFLYEKRNFYTSNDGKKYTKKFWNHLGFVIIPQETAYIVERLGKYNKTLLAGIHFLIPFIDKIAYVFSLKEETITIPNQTAITKDNVTLNIDGVLYIKCDNPYNSSYAIEDAVFAVTQLAQVTMRSELGKLTLDATFLERDNLNEKLVKAINESAKNWGIKCMRYEIRDIILPVNIKNAMEKQAEAERRKRAEILQSEGERESEINIAIGKKRKSILIAEGQSFAIKAKADATAEAIEIISNKIKKLDSNNAISLLVAEQYIDVFSNICKNNNTVIIPADLNNISSLISQSLSIYNNIQNSKKENNQIHTLPIQKQIHSDMNN,not soluble
10,MLRKGVSFVGQAVQQTLKTQKNLRIQRFSATASQSSEEVNYEIRKDGKRLRGADYEEIVLTSIAGEDKTQIPKGAFDVLLKEYDDLQAESLDFKDKYQRSLAETENVRRRGIKQTDDAKVFAIQSFCKDLLEVSDILDIAVKSVKPEDLESGGKALKDLFEGVSMTRTVMAKTFAKHGLVTVDPTNEKFDPNLHEAVFQIPSANAKQPVGHIEVCTKIGYSLKERPIRPAQVGVVSK,not soluble
11,MSLTTTPANVLASVDLGSNSFRLQICENNNGQLKVIDSFKQMVRFAAGLDEQKNLSAASQEQALDCLAKFGERLRGFRPEQVRAVATNTFRVAKNIADFLPKAEAALGFPIEIIAGREEARLIYTGVIHTLPPGGGKMLVIDIGGGSTEFVIGSTLNPDITESLPLGCVTYSLRFFQNKITAKDFQSAISAARNEIQRISKNMRREGWDFAVGTSGSAKSIRDVLAAEMPQEADITYKGMRALAERIIEAGSVKKAKFENLKPERIEVFAGGLAVMMAAFEEMKLDRMTVTEAALRDGVFYDLIGRGLNEDMRGQTVAEFQHRYHVSLNQAKRTAETAQTFMDSLCHAKNVTVQELALWQQYLGRAAALHEIGLDIAHTGYHKHSAYILENADMPGFSRKEQTILAQLVIGHRGDMKKMSGIIGTNEMLWYAVLSLRLAALFCRSRQDLSFPKNMQLRTDTESCGFILRIDREWLERHPLIADALEYESVQWQKINMPFKVEAVEGHHHHHH,soluble
12,MTNEAIQNREPFLQNLREKLDVEKQPVSAHPFEPVNHLPEEQLADKTPAELLTIVKERVETIHTNLVETTQENLLTTIQQIVAEFGGDNLLLPTDARFEAYGLADLAKSLEAVSVKQWQPGSEQREANIQTAAQANIAIAFAEFLLAESGTIVVESNAGQGRALHFLPKHYISIIPFSKLVPRSTQPAAFYTEKIEKGEKIGSAIHFISGPSNSGDIEMQLVVGLHGPLEVCYVVVMDR,not soluble
13,GGNANMFMNLSREAQSETRRHHYLSSSQKEAKDFAMFADTSNPTLVRTIGVRNNLSLITDPRTGGTALMTDQSIPRKFVLGSKSSAPGENAKVFRDEMRAAGHNVSTKQAGELLREVQSDSDDDNFPDPDDFIMSRFTG,not soluble
14,MGSDKIHHHHHHMLCQFSFKNFKSYKETTTFDFQATSIPEFSESLLKSEKADALLPVGVIYGPNGGGKTNLLLALSCLISTVVKPIYELEKAREKIIIQQKISAAPFYFNEISRKMPTEFEVYFRQGKNEYRYNLSICGDDIVEESLYWKAIGGKRTGMVFDREGAEITLGASINKASINRSVNPKMPYLSFLAINYDIPVIVEVQKWFESCIVKNYANPIADRQIMFSDDESYRKRIVRALNDVDIDVSGYRYDEENHELYTQRMIEGKIYELSFNDESDGTKKMIAALPVILLALQEGRLVIIDELDAKLHPKLLRYVISLFKNKNVNKKGAQLLFTSHDMTTMKNTVFRRDEIWFAAENERHESEIYSLYEIRRENNERVNSTAAYDKQYLEGRYGADPYLTNMLAGGEWL,not soluble
15,MEKNDIFVVIPAYNEEKMIKNTLINLKSHGYENIIVVDDGSRDNTSKIAISEEVIVCKHIINRGLGGALKTGLKCAVKYNPKVIVTFDADGQHDPEDIFKVSEPILEDSFDVVVGSRLIDENELKNMPLIKKIGNWGLNFITYLMGGRMVTDSQGGLRAFSYDAAEIVSKQLKSNRYEVSSEFIVLFKKNNLKFKEVPIKTIYTEYSMARGTNVITGFKILFKLLIQKLILEHHHHHH,soluble
16,MSLTSTAFAPRSLAPARITAVRVAPLLGESPQGGWSHEIKADDSVHALIALHTDAGISGYGSVFTNGALVQAAADVLTPLLLGENALEPDRIAEKLHQNTFWMGRGGSITHTISGIDIAMWDILGQATGLSVGRLLGGRHRDRVQPYCSLLMDMPERMEAVIAPHRAAGFRAFKIGWGPFGRRGDAGLDRAIIDAARTAVGTDAQLLVDAGASDAYWPNGLKWAMNTAAMLADYDVGWFEEALPPDAIEDFIALRRMSPVPIAGGEVLTRRQSFAPWLVRGAFDIVQPDVTKVGGISEQRRIAWMARDFGIRYVGHGWNTAFGLAADLQLAAAMPDCTLVEYIGGSAYVDRLTTRPFALDAEGMLAIPDLPGLGVSPDPALLARYTPDPEKFFSAEGHHHHHH,soluble
17,MQKINDAGELAKHSVVVTTFDTIKTLMNFQTLQKISFERIIIYDAYPIDNTDTQRYKALRQLDATYRWVLTGNLLQQNLANFLKLGEYGDDQLWDTQICPILEGKQCDEKTELSKKIENLLKSVELKFPLENYREMEVGADDSQ,not soluble
18,MYNGILPVYKERGLTSHDVVFKLRKILKTKKIGHTGTLDPEVAGVLPVCIGNATRVSDYVMDMGKAYEATVSIGRSTTTEDQTGDTLETKGVHSADFNKDDIDRLLENFKGVIEQIPPMYSSVKVNGKKLYEYARNNETVERPKRKVNIKDIGRISELDFKENECHFKIRVICGKGTYIRTLATDIGVKLGFPAHMSKLTRIESGGFVLKDSLTLEQIKELHEQDSLQNKLFPLEYGLKGLPSIKIKDSHIKKRILNGQKFNKNEFDNKIKDQIVFIDDDSEKVLAIYMVHPTKESEIKPKKVFN,soluble
